Experimental data published in publication PMC12859517.

How the values were obtained:
[1] = biological target: Full-length MctBsm (MctB of M. smegmatis) (M. smegmatis)
[2] = biological target: Full-length MctBsm (MctB of M. smegmatis) (M. smegmatis); assay: SDS-PAGE under mild conditions with Western blot; 0.1% SDS in loading buffer, no reducing agent, not boiled, run in an ice bath; protein purified in OPOE; gel slices eluted with OPOE and run again

“Full-length MctBsm (MctB of M. smegmatis) (natural protein)” was tested, and the channel insertions in lipid bilayer experiments (DphPC, 1 M KCl, 10 mM Hepes pH 7.0, 100 mV), purified MctBsm before fractionation [1] was 20 pS and the stoichiometry N [2] was > 2.
